{
  "source": "FireProtDB (doi:10.1021/bi00437a058)",
  "parents": {"B1": {"name": "Ribonuclease, P00648 (parent)", "chain": "MMKMEGIALKKRLSWISVCLLVLVSAAGMLFSTAAKTETSSHKAHTEAQVINTFDGVADYLQTYHKLPDNYITKSEAQALGWVASKGNLADVAPGKSIGGDIFSNREGKLPGKSGRTWREADINYTSGFRNSDRILYSSDWLIYKTTDHYQTFTKIR"}},
  "variants_of": "B1",
  "conditions": "Bacillus amyloliquefaciens, pH 6.3, Fluorescence, structure 1BNI, whole UniProt chain shown",
  "key": {"[1]": {"conditions": "25 °C, Urea, MES 450 mM, reversible: yes (100%)"}, "[2]": {"conditions": "48 °C, Thermal, MES 50 mM, reversible: yes (>85%)"}, "[3]": {"conditions": "Thermal, MES 50 mM, reversible: yes (>85%)"}, "[4]": {"conditions": "25 °C, GdnHCl, MES 450 mM, reversible: yes (100%)"}},
  "data": [
    {"variant": "MMKMEGIALKKRLSWISVCLLVLVSAAGMLFSTAAKTETSSHKAHTEAQVINTFDGVADYAQTYHKLPDNYITKSEAQALGWVASKGNLADVAPGKSIGGDIFSNREGKLPGKSGRTWREADINYTSGFRNSDRILYSSDWLIYKTTDHYQTFTKIR", "values": [
      {"measurement": "ddG of mutation (higher = less stable)", "setting": "[1]", "value": 4.65, "unit": "kcal/mol"},
      {"measurement": "denaturant m value", "setting": "[1]", "value": 2.08, "unit": "kcal/mol/M"},
      {"measurement": "denaturant midpoint (higher = more stable)", "setting": "[1]", "value": 2.29, "unit": "M"},
      {"measurement": "unfolding free energy", "setting": "[1]", "value": 4.77, "unit": "kcal/mol"},
      {"measurement": "ddG of mutation (higher = less stable)", "setting": "[2]", "value": 4.2, "unit": "kcal/mol"},
      {"measurement": "Tm", "setting": "[3]", "value": 42, "unit": "°C"},
      {"measurement": "change of melting temperature, mutant - wild type (higher = more stable)", "setting": "[3]", "value": -11.9, "unit": "°C"},
      {"measurement": "unfolding enthalpy (van 't Hoff)", "setting": "[3]", "value": 108, "unit": "kcal/mol"}
    ]},
    {"variant": "MMKMEGIALKKRLSWISVCLLVLVSAAGMLFSTAAKTETSSHKAHTEAQVINTFDGVADYLQTYHKLPDNYITKSEAQALGWVASKGNLADVAPGKSIGGDIFSNREGKLPGKSGRTWREADINYTSGFRNSDRILYSSDWLVYKTTDHYQTFTKIR", "values": [
      {"measurement": "ddG of mutation (higher = less stable)", "setting": "[4]", "value": 0.69, "unit": "kcal/mol"},
      {"measurement": "denaturant m value", "setting": "[4]", "value": 4.64, "unit": "kcal/mol/M"},
      {"measurement": "denaturant midpoint (higher = more stable)", "setting": "[4]", "value": 1.76, "unit": "M"},
      {"measurement": "unfolding free energy", "setting": "[4]", "value": 8.19, "unit": "kcal/mol"},
      {"measurement": "ddG of mutation (higher = less stable)", "setting": "[1]", "value": 0.74, "unit": "kcal/mol"},
      {"measurement": "denaturant m value", "setting": "[1]", "value": 2.11, "unit": "kcal/mol/M"},
      {"measurement": "denaturant midpoint (higher = more stable)", "setting": "[1]", "value": 4.11, "unit": "M"},
      {"measurement": "unfolding free energy", "setting": "[1]", "value": 8.68, "unit": "kcal/mol"},
      {"measurement": "Tm", "setting": "[3]", "value": 51.5, "unit": "°C"},
      {"measurement": "change of melting temperature, mutant - wild type (higher = more stable)", "setting": "[3]", "value": -2.4, "unit": "°C"},
      {"measurement": "unfolding enthalpy (van 't Hoff)", "setting": "[3]", "value": 121, "unit": "kcal/mol"}
    ]},
    {"variant": "MMKMEGIALKKRLSWISVCLLVLVSAAGMLFSTAAKTETSSHKAHTEAQVINTFDGVADYLQTYHKLPDNYITKSEAQALGWVASKGNLADVAPGKSIGGDIFSNREGKLPGKSGRTWREADINYTSGFRNSDRILYSSDWLAYKTTDHYQTFTKIR", "values": [
      {"measurement": "ddG of mutation (higher = less stable)", "setting": "[4]", "value": 2.72, "unit": "kcal/mol"},
      {"measurement": "denaturant m value", "setting": "[4]", "value": 4.87, "unit": "kcal/mol/M"},
      {"measurement": "denaturant midpoint (higher = more stable)", "setting": "[4]", "value": 1.26, "unit": "M"},
      {"measurement": "unfolding free energy", "setting": "[4]", "value": 6.16, "unit": "kcal/mol"},
      {"measurement": "ddG of mutation (higher = less stable)", "setting": "[1]", "value": 3.13, "unit": "kcal/mol"},
      {"measurement": "denaturant m value", "setting": "[1]", "value": 2.18, "unit": "kcal/mol/M"},
      {"measurement": "denaturant midpoint (higher = more stable)", "setting": "[1]", "value": 2.89, "unit": "M"},
      {"measurement": "unfolding free energy", "setting": "[1]", "value": 6.29, "unit": "kcal/mol"},
      {"measurement": "ddG of mutation (higher = less stable)", "setting": "[2]", "value": 3.2, "unit": "kcal/mol"},
      {"measurement": "Tm", "setting": "[3]", "value": 44.9, "unit": "°C"},
      {"measurement": "change of melting temperature, mutant - wild type (higher = more stable)", "setting": "[3]", "value": -9.6, "unit": "°C"},
      {"measurement": "unfolding enthalpy (van 't Hoff)", "setting": "[3]", "value": 112, "unit": "kcal/mol"}
    ]},
    {"variant": "MMKMEGIALKKRLSWISVCLLVLVSAAGMLFSTAAKTETSSHKAHTEAQVINTFDGVADYLQTYHKLPDNYITKSEAQALGWVASKGNLADVAPGKSIGGDIFSNREGKLPGKSGRTWREADINYTSGFRNSDRALYSSDWLIYKTTDHYQTFTKIR", "values": [
      {"measurement": "ddG of mutation (higher = less stable)", "setting": "[1]", "value": 4.08, "unit": "kcal/mol"},
      {"measurement": "denaturant m value", "setting": "[1]", "value": 2.16, "unit": "kcal/mol/M"},
      {"measurement": "denaturant midpoint (higher = more stable)", "setting": "[1]", "value": 2.47, "unit": "M"},
      {"measurement": "unfolding free energy", "setting": "[1]", "value": 5.34, "unit": "kcal/mol"},
      {"measurement": "ddG of mutation (higher = less stable)", "setting": "[2]", "value": 3.9, "unit": "kcal/mol"},
      {"measurement": "Tm", "setting": "[3]", "value": 42.7, "unit": "°C"},
      {"measurement": "change of melting temperature, mutant - wild type (higher = more stable)", "setting": "[3]", "value": -11.2, "unit": "°C"},
      {"measurement": "unfolding enthalpy (van 't Hoff)", "setting": "[3]", "value": 106, "unit": "kcal/mol"}
    ]},
    {"variant": "MMKMEGIALKKRLSWISVCLLVLVSAAGMLFSTAAKTETSSHKAHTEAQVINTFDGVADYLQTYHKLPDNYITKSEAQALGWVASKGNLADVAPGKSIGGDIFSNREGKLPGKSGRTWREADINYTSGFRNSDRVLYSSDWLIYKTTDHYQTFTKIR", "values": [
      {"measurement": "ddG of mutation (higher = less stable)", "setting": "[1]", "value": 1.47, "unit": "kcal/mol"},
      {"measurement": "denaturant m value", "setting": "[1]", "value": 2.06, "unit": "kcal/mol/M"},
      {"measurement": "denaturant midpoint (higher = more stable)", "setting": "[1]", "value": 3.87, "unit": "M"},
      {"measurement": "unfolding free energy", "setting": "[1]", "value": 7.95, "unit": "kcal/mol"},
      {"measurement": "Tm", "setting": "[3]", "value": 51, "unit": "°C"},
      {"measurement": "change of melting temperature, mutant - wild type (higher = more stable)", "setting": "[3]", "value": -2.9, "unit": "°C"},
      {"measurement": "unfolding enthalpy (van 't Hoff)", "setting": "[3]", "value": 117, "unit": "kcal/mol"}
    ]}
  ]
}
